Data taken from US20230346916A1 (NEW YORK BLOOD CENTER, published 2023).

Key:
[1] = target: T1, SARS-CoV-2 RBD-Fc fusion protein (residues 331-524 of SARS-CoV-2 S protein with a C-terminal Fc of human IgG1) (SARS-CoV-2; human); experiment: ELISA, RBD-Fc coated at 1 µg/ml, sDPP4 serially diluted
T1 construct: also called SARS-CoV-2 RBD protein; SARS-CoV-2 RBD-Fc protein

[2] = target: T1, SARS-CoV-2 RBD-Fc fusion protein …; experiment: flow cytometry on hDPP4/293T cells

B1: soluble human DPP4 (sDPP4) receptor (receptor)
chain: SRKTYTLTDYLKNTYRLKLYSLRWISDHEYLYKQENNILVFNAEYGNSSVFLENSTFDEFGHSINDYSISPDGQFILLEYNYVKQWRHSYTASYDIYDLNKRQLITEERIPNNTQWVTWSPVGHKLAYVWNNDIYVKIEPNLPSYRITWTGKEDIIYNGITDWVYEEEVFSAYSALWWSPNGTFLAYAQFNDTEVPLIEYSFYSDESLQYPKTVRVPYPKAGAVNPTVKFFVVNTDSLSSVTNATSIQITAPASMLIGDHYLCDVTWATQERISLQWLRRIQNYSVMDICDYDESSGRWNCLVARQHIEMSTTGWVGRFRPSEPHFTLDGNSFYKIISNEEGYRHICYFQIDKKDCTFITKGTWEVIGIEALTSDYLYYISNEYKGMPGGRNLYKIQLSDYTKVTCLSCELNPERCQYYSVSFSKEAKYYQLRCSGPGLPLYTLHSSVNDKGLRVLEDNSALDKMLQNVQMPSKKLDFIILNETKFWYQMILPPHFDKSKKYPLLLDVYAGPCSQKADTVFRLNWATYLASTENIIVASFDGRGSGYQGDKIMHAINRRLGTFEVEDQIEAARQFSKMGFVDNKRIAIWGWSYGGYVTSMVLGSGSGVFKCGIAVAPVSRWEYYDSVYTERYMGLPTPEDNLDHYRNSTVMSRAENFKQVEYLLIHGTADDNVHFQQSAQISKALVDVGVDFQAMWYTDEDHGIASSTAHQHIYTHMSHFIKQCFSLP
notes: also called hDPP4 in solution
Q: Does B1 bind [1]?
A: no binding

B2: human DPP4 (hDPP4) receptor expressed on 293T cells (receptor)
chain: MKTPWKVLLGLLGAAALVTIITVPVVLLNKGTDDATADSRKTYTLTDYLKNTYRLKLYSLRWISDHEYLYKQENNILVFNAEYGNSSVFLENSTFDEFGHSINDYSISPDGQFILLEYNYVKQWRHSYTASYDIYDLNKRQLITEERIPNNTQWVTWSPVGHKLAYVWNNDIYVKIEPNLPSYRITWTGKEDIIYNGITDWVYEEEVFSAYSALWWSPNGTFLAYAQFNDTEVPLIEYSFYSDESLQYPKTVRVPYPKAGAVNPTVKFFVVNTDSLSSVTNATSIQITAPASMLIGDHYLCDVTWATQERISLQWLRRIQNYSVMDICDYDESSGRWNCLVARQHIEMSTTGWVGRFRPSEPHFTLDGNSFYKIISNEEGYRHICYFQIDKKDCTFITKGTWEVIGIEALTSDYLYYISNEYKGMPGGRNLYKIQLSDYTKVTCLSCELNPERCQYYSVSFSKEAKYYQLRCSGPGLPLYTLHSSVNDKGLRVLEDNSALDKMLQNVQMPSKKLDFIILNETKFWYQMILPPHFDKSKKYPLLLDVYAGPCSQKADTVFRLNWATYLASTENIIVASFDGRGSGYQGDKIMHAINRRLGTFEVEDQIEAARQFSKMGFVDNKRIAIWGWSYGGYVTSMVLGSGSGVFKCGIAVAPVSRWEYYDSVYTERYMGLPTPEDNLDHYRNSTVMSRAENFKQVEYLLIHGTADDNVHFQQSAQISKALVDVGVDFQAMWYTDEDHGIASSTAHQHIYTHMSHFIKQCFSLP
notes: whole, on cells
Q: Does B2 bind [2]?
A: no binding (tested: 20 µg/ml)
